Patent publication US20020187934A1

Molecular target: purified HLA-DR4Dw4 (human)
Experiment: Test A: competition with biotin-FHA307-320 for purified HLA-DR4Dw4, ELISA read-out

concentration showing significant binding: < 0.1 µM
Substance: Phv-Arg-Ala-IIb-Thr-Ala-Ala-Ala-Papa-NH2 (SEQ ID NO:1) (peptide)
